Changes are numbered by the printed parent chain. Numbers in names are those of the source.
B1: H4H11683N (antibody, V domains shown)
VH: QVQLVESGGGVVQPGRSLRLSCVASGFTFSSYGIHWVRQAPGKGLEWVAVIWDDGNNINYSDSVKGRFIISRDNSRKTVYLQMNSLRGEDTAVYYCARDAPIAPVPDYWGQGTLVTVSS
VL: DIQMTQSPSTLSASVGDRVTITCRASQSISSWLAWYQQKPGKAPKLLIYKASSLDTGVPSRFSGSGSGTEFTLTISSLQPDDFATYYCQQYNTYSYTFGLGTKLEIK
notes: also called H2M11683N
B2: H4H12163P (antibody, human IgG4, V domains shown)
VH: EVQLVESGGDLVQPGGSLRLSCAASGFTFSSYAMNWVRQGPGKGLEWVSAISGRGDSTYYADSVKGRLTISRDNSKNTLYLQMNSLRAEDTAVYYCVKEGEQLVYWYFDLWGRGTLVTVSS
VL: DIQMTQSPSSLSASVGDRVTITCRASQTISNFLHWYQQKPGKAPKLLIYAASSLQSGVPSRFSGSGSGTDFTLTISSLQPEDFSTYFCQQSYTTPLTFGGGTKVEIK
notes: Human IgG4 Fc with S108P hinge mutation (H4H)
B3: H4H12166P7 (antibody, human IgG4, V domains shown)
VH: QVQLQESGPGLVKPSETLSLTCTVSGDSVSSSYWTWIRQPPGKGLEWIGYIYYSGSSNYNPSLKSRATISVDTSKNQFSLKLSSVTAADTAVYYCAREHNVDTTMIFDYWGQGTLVTVSS
VL: AIQMTQSPSSLSASVGDRVTITCRASQGIRNDLGWYQQKPGKAPKLLIYAASSLQSGVPSRFAGRGSGTDFTLTISSLQPEDFATYYCLQDFNYPWHFGQGTKVEIK
notes: Histidine-mutated CDR variant of H4H12166P; human IgG4 Fc with S108P
B4: H4H12166P10 (antibody, human IgG4, V domains shown)
VH: B3 VH with H99G, F107H
VL: B3 VL
notes: as for B3
B5: H4H12166P9 (antibody, human IgG4, V domains shown)
VH: B3 VH with H99G, T103H
VL: B3 VL
notes: as for B3
B6: H4H12166P8 (antibody, human IgG4, V domains shown)
VH: B3 VH with H99G, T103H
VL: B3 VL with L89H, H97T
notes: as for B3
B7: H4H12171P (antibody, human IgG4, V domains shown)
VH: EVQLVESGGGVVRPGGSLRLSCAASGFTFDEYGMTWVRQVPGKGLEWVSGITWNGGFTDYTDSVKGRFTSSRDNAKNSLYLQMNSLRAEDTALYYCARDGYSSSWGAYDIWGQGTMVTVSS
VL: DIQMTQSPSSLSASVGDRVTITCRASQSISTYLNWYQQKPGKAPKLLIYAASSLQSGVPLRFSGSGSGTDFTLTISSLQPEDFASYFCQQSYSTPYTFGQGTKLEIK
notes: as for B2

Columns and labels:
human C5 R885C-mmh [1] = molecular target: T1, human C5 R885C-mmh (human, UniProt P01031 19-1676); test: SPR, mAb captured via anti-hFc, 37C
T1 construct: also called human C5 variant R885C
Protocol: (§1) Equilibrium dissociation constants (KD values) for C5 binding to purified anti-C5 antibodies were determined using a real-time surface plasmon resonance biosensor assay on a Biacore T200 instrument. The Biacore sensor surface was derivatized by amine coupling with a monoclonal mouse anti-human Fc antibody (GE Healthcare, # BR-1008-39) to capture anti-C5 antibodies expressed with human Fc constant regions. Biacore binding studies were conducted in HBST running buffer (0.01M HEPES pH 7.4, 0.15M NaCl, 3 mM EDTA, 0.05% v/v Surfactant P20).
(§2) Human C5 was obtained from a commercial source (EMD). Other C5 reagents were expressed with a C-terminal myc-myc-hexahistidine tag (subsequently referred to as C5-mmh). […] Association of all the C5 reagents to each of the captured monoclonal antibodies was monitored for 3 minutes and their dissociation in HBST running buffer was monitored for 8 minutes. All the binding kinetics experiments were performed at either 25° C. or 37° C. Kinetic association (kₐ) and dissociation (kd) rate constants were determined by fitting the real-time sensorgrams to a 1:1 binding model using Scrubber 2.0c curve fitting software. Binding dissociation equilibrium constants (KD) and dissociative half-lives (t %) were calculated from the kinetic rate constants as: KD (M)=kd/kₐ and t_{1/2} (min)=In2/(60×kd)

monkey C5-mmh = molecular target: T2, monkey C5-mmh (monkey, UniProt P01031 19-1676 (human entry), limits assumed); test: SPR, mAb captured via anti-hFc, 37C
T2 construct: Recombinant monkey C5 with a C-terminal myc-myc-hexahistidine tag
T2 chain: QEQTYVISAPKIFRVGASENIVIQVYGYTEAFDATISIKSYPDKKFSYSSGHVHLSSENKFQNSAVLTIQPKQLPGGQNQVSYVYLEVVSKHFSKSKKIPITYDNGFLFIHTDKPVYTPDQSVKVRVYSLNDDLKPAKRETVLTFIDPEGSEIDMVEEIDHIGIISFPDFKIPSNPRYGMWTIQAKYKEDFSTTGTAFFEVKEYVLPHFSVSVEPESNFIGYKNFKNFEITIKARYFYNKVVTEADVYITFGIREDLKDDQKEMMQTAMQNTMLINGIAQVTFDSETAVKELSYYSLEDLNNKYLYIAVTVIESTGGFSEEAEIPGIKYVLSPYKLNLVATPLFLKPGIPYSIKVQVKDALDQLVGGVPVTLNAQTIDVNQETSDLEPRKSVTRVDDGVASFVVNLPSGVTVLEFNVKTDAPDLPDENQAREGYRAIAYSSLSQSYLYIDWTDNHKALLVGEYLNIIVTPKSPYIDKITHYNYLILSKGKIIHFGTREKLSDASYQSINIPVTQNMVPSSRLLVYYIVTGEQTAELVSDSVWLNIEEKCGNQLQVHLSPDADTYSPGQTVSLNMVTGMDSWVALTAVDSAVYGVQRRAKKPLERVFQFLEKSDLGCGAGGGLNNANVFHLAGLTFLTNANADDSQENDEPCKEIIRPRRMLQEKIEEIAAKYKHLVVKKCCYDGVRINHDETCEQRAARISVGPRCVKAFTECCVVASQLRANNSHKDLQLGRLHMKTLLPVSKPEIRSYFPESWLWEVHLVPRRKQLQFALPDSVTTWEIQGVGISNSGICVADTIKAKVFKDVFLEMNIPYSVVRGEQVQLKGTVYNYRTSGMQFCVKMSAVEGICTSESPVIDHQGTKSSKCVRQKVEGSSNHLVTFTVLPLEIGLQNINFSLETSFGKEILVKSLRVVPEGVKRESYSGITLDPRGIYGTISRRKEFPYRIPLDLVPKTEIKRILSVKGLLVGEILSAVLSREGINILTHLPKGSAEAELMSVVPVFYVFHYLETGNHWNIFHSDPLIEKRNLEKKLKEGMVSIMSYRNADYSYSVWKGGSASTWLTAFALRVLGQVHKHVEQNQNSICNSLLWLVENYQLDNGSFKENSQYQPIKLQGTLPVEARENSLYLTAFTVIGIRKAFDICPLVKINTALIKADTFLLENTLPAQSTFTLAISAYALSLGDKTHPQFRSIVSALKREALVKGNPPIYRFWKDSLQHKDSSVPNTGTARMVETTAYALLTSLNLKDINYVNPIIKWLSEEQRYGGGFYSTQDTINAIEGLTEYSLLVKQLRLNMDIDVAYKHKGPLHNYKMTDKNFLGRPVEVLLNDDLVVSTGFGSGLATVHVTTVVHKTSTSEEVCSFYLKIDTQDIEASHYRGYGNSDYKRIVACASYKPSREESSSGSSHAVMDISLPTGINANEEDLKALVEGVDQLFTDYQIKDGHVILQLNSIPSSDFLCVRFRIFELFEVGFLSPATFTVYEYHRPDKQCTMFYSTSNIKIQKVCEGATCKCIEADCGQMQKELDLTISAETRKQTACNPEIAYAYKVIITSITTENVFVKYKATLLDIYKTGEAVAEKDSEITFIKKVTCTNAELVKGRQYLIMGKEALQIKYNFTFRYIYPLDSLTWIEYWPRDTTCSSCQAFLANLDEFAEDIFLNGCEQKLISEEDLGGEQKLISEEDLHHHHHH
Protocol: as §1, §2

human C5 R885H-mmh [2] = molecular target: T3, human C5 R885H-mmh (human, UniProt P01031 19-1676); test: SPR, mAb captured via anti-hFc, 37C
T3 construct: also called human C5 variant R885H
Protocol: as §1, §2

human C5 R885C-mmh [3] = molecular target: T1, human C5 R885C-mmh; test: SPR, mAb captured via anti-hFc, 25C
Protocol: as §1, §2

human C5 R885H-mmh [4] = molecular target: T3, human C5 R885H-mmh; test: SPR, mAb captured via anti-hFc, 25C
Protocol: as §1, §2

human C5 = molecular target: T4, human C5 (human, UniProt P01031 19-1676); test: SPR, mAb captured via anti-hFc, dissociation at pH7.4 vs pH6.0, 25C
T4 construct: Bought human C5 (EMD #204888, said elsewhere to be purified from plasma); also called hC5; complement component 5
Protocol: Effect of pH on the rate of dissociation of recombinant human C5 bound to purified anti-C5 monoclonal antibodies was determined using a real-time surface plasmon resonance biosensor using a Biacore T200 instrument. The Biacore sensor surface was first derivatized by amine coupling with a monoclonal mouse anti-human Fc antibody (GE, # BR-1008-39) to capture anti-C5 monoclonal antibodies expressed with human IgG4 Fc. All Biacore binding studies were performed using two running buffers PBS-T, pH7.4 (0.01M Na₂HPO₄/NaH₂PO₄, 0.15M NaCl, 0.05% v/v Tween-20, adjusted to pH7.4) and PBS-T, pH6.0 (0.01M Na₂HPO₄/NaH₂PO₄, 0.15M NaCl, 0.05% v/v Tween-20, adjusted to pH6.0). […] Binding dissociative half-lives (t %) were calculated from kd as: […]

| Binder | 100 nM Human C5 R885C-mmh Bound (RU) (human C5 R885C-mmh [1]) | Kd (human C5 R885C-mmh [1]) | koff (human C5 R885C-mmh [1]) | kon (human C5 R885C-mmh [1]) | t1/2 (human C5 R885C-mmh [1]) | 100 nM monkey C5-mmh Bound (RU) (monkey C5-mmh) | Kd (monkey C5-mmh) | koff (monkey C5-mmh) | kon (monkey C5-mmh) | t1/2 (monkey C5-mmh) | 100 nM Human C5 R885H-mmh Bound (RU) (human C5 R885H-mmh [2]) | Kd (human C5 R885H-mmh [2]) | koff (human C5 R885H-mmh [2]) | kon (human C5 R885H-mmh [2]) | t1/2 (human C5 R885H-mmh [2]) | 100 nM Human C5 R885C-mmh Bound (RU) (human C5 R885C-mmh [3]) | Kd (human C5 R885C-mmh [3]) | koff (human C5 R885C-mmh [3]) | kon (human C5 R885C-mmh [3]) | t1/2 Ratio pH7.4/pH6.0 (human C5) | other results |
| --- | --- | --- | --- | --- | --- | --- | --- | --- | --- | --- | --- | --- | --- | --- | --- | --- | --- | --- | --- | --- | --- |
| B1 | 78 RU | 3.25 nM | 0.00143 s⁻¹ | 438000 M⁻¹ s⁻¹ | 8 min | 303 RU | 2.16 nM | 0.00115 s⁻¹ | 535000 M⁻¹ s⁻¹ | 10 min | 81 RU | 2.69 nM | 0.00147 s⁻¹ | 548000 M⁻¹ s⁻¹ | 8 min | 116 RU | 0.479 nM | 0.000239 s⁻¹ | 499000 M⁻¹ s⁻¹ | 2 | t1/2 (human C5 R885C-mmh [3]): 48 min; 100 nM Human C5 R885H-mmh Bound (RU) (human C5 R885H-mmh [4]): 118 RU; Kd (human C5 R885H-mmh [4]): 0.468 nM; koff (human C5 R885H-mmh [4]): 0.000246 s⁻¹; kon (human C5 R885H-mmh [4]): 526000 M⁻¹ s⁻¹; t1/2 (human C5 R885H-mmh [4]): 47 min |
| B2 | 83 RU | 4.97 nM | 0.00281 s⁻¹ | 566000 M⁻¹ s⁻¹ | 4 min | 129 RU | 3.2 nM | 0.00125 s⁻¹ | 390000 M⁻¹ s⁻¹ | 9 min | 85 RU | 4 nM | 0.0029 s⁻¹ | 724000 M⁻¹ s⁻¹ | 4 min | 211 RU | 0.858 nM | 0.000432 s⁻¹ | 504000 M⁻¹ s⁻¹ | 1.2 | t1/2 (human C5 R885C-mmh [3]): 27 min; 100 nM Human C5 R885H-mmh Bound (RU) (human C5 R885H-mmh [4]): 214 RU; Kd (human C5 R885H-mmh [4]): 0.646 nM; koff (human C5 R885H-mmh [4]): 0.000434 s⁻¹; kon (human C5 R885H-mmh [4]): 672000 M⁻¹ s⁻¹; t1/2 (human C5 R885H-mmh [4]): 27 min |
| B3 |  |  |  |  |  | 48 RU | 19.3 nM | 0.00241 s⁻¹ | 125000 M⁻¹ s⁻¹ | 5 min |  |  |  |  |  |  |  |  |  | 35 |  |
| B4 |  |  |  |  |  | 24 RU | 42.2 nM | 0.00279 s⁻¹ | 66000 M⁻¹ s⁻¹ | 4 min |  |  |  |  |  |  |  |  |  | 33 |  |
| B5 |  |  |  |  |  | 69 RU | 14.4 nM | 0.00261 s⁻¹ | 181000 M⁻¹ s⁻¹ | 4 min |  |  |  |  |  |  |  |  |  | 31 |  |
| B6 |  |  |  |  |  | 53 RU | 13.3 nM | 0.00269 s⁻¹ | 203000 M⁻¹ s⁻¹ | 4 min |  |  |  |  |  |  |  |  |  | 47 |  |
| B7 | 78 RU | 2.01 nM | 0.000957 s⁻¹ | 477000 M⁻¹ s⁻¹ | 12 min | 78 RU | 1.85 nM | 0.00103 s⁻¹ | 556000 M⁻¹ s⁻¹ | 11 min | 80 RU | 1.63 nM | 0.000963 s⁻¹ | 592000 M⁻¹ s⁻¹ | 12 min | 51 RU | 0.366 nM | 0.000139 s⁻¹ | 379000 M⁻¹ s⁻¹ | 0.6 | t1/2 (human C5 R885C-mmh [3]): 83 min; 100 nM Human C5 R885H-mmh Bound (RU) (human C5 R885H-mmh [4]): 51 RU; Kd (human C5 R885H-mmh [4]): 0.216 nM; koff (human C5 R885H-mmh [4]): 0.000142 s⁻¹; kon (human C5 R885H-mmh [4]): 659000 M⁻¹ s⁻¹; t1/2 (human C5 R885H-mmh [4]): 81 min |

Reference: US20170355757A1 (Regeneron, published 2017)
